We go through three molecules from patent US11591604B2, “Gene expression in Bacteroides” (Massachusetts Institute of Technology, priority 2015, dated 2023).

For one data set, the system named is Bacteroides spp. Briefly: pNBU1 integration and gene expression across Bacteroides and Parabacteroides species. Type of data set: cell-based. The source says: FIG. 11 is a graph showing that pNBU1 may be used to target, for example, B. thetaiotaomicron, B. fragilis, B. ovatus, B. vulgatus, B. caccae, B. eggerthii, B. vulgatus and Parabacteroides distasonis.
An integration vector, designated pNBU1, was created to introduce recombinant DNA into a wide range of Bacteroides species (FIG. 10). IntN1 integrase catalyzes site-specific genomic integration of the plasmid into recipient Bacteroides strains.

Data set [1] deals with integrase recognition sequences in the memory array. Briefly: Integrase-mediated DNA inversion in chromosomal memory array detected by PCR. Type of data set: cell-based, B. thetaiotaomicron. To be noted: integrase expressed from PAM4-rpiL*, PCR detection.
From the text: (FIG. 3C) Integrase-mediated DNA inversion at each integrase target sequence in the memory array cassette was detected by polymerase chain reaction (PCR). Primer pairs (arrows) anneals to the interface of the integrase recognition sites and to the spacer region between recognition sites. PCR amplification occurs only after an inversion event (solid lines below the primer arrows indicate expected amplicons). (FIG. 3D) Representative PCR products are shown after recombination. − indicates no integrase, + indicates the integrase is present. PAM4-rpiL* was used to control expression of each integrase.
The subject of a further data set is B. thetaiotaomicron. Description: Cell growth (OD600) of P3763-rpiL*C51-Int12 strain versus rhamnose concentration. The conditions noted are these: even when maximally expressed. Type of data set: cell-based. The source says:
FIGS. 8A-8B. Integrase characterization. (FIG. 8A) Representative PCR products are shown for wild-type (unflipped) memory array at each integrase recognition sequence. “−” indicates no integrase, “+” indicates the integrase is present. PAM4-rpiL* was used to control expression of each integrase. (FIG. 8B) Cell growth of the P3763-rpiL*C51-Int12 strain is shown as optical density (OD) at 600 nm as a function of rhamnose concentration. Inducer concentrations were three-fold serial dilutions starting at 10 mM rhamnose. The leftmost data point represents the […] in the absence of inducer. Cells were grown 8 hours at 37° C. before measuring the OD600 value for each culture. Error bars represent the standard deviation of three biological replicates made on three different days (n=3).
To create an inducible memory switch, Int12 was cloned under the control of the rhamnose-inducible promoter with the rpiL*RBS variant C51 (FIG. 3E) (see also FIG. 1C, Table 1).

Data set [2] deals with NanoLuc. Description: Luciferase activity in fecal pellets of mice colonized with arabinogalactan-inducible P0268 strain. Type of data set: in vivo, Swiss Webster mice. As to the method: FIGS. 5A-5D. In vivo function of genetic parts within B. thetaiotaomicron colonizing the mouse gut. (FIG. 5A) Experimental timeline. Specific pathogen free (SPF) Swiss Webster mice were treated for 10 days with ciprofloxacin and metronidazole and gavaged with B. thetaiotaomicron 2 days after cessation of treatment. […] Mice were provided drinking water supplemented with 5% arabinogalactan (FIG. 5B: solid line), or 25 mM IPTG (FIG. 5C: solid line) after stool collection on Day 2 (grey box), or were maintained on normal drinking water throughout the entire experiment (dashed lines). Inducer water was removed on Day 4 after stool collection. Grey boxes indicate the period of time that mice were exposed to inducer-supplemented drinking water. Luminescence values were normalized to cell density as determined by qPCR using NanoLuc-specific primers. (FIG. 5D) SPF mice were colonized with B. thetaiotaomicron containing the rhamnose-inducible integrase construct P3763-rpiL*C51-Int12. […] Absolute quantities of flipped and unflipped memory array in fecal DNA were determined by qPCR using standard curves (Experimental Procedures). Recombination frequency is expressed as the ratio of cells containing a flipped memory array (Flipped) divided by the sum total of cells containing a flipped or unflipped array (Total). […]

Data set [3] deals with NanoLuc. Description: Response curves of inducible promoters driving NanoLuc. Type of data set: cell-based, B. thetaiotaomicron. The conditions noted are these: arabinogalactan induction. As to the method: FIGS. 2A-2E. Design and characterization of genetic sensors. (FIGS. 2A-2D) Response curves for NanoLuc under the regulated control of the rhamnose—(Rha) (FIG. 2A), chondroitin sulfate—(ChS) (FIG. 2B), arabinogalactan—(AG) (FIG. 2C), or IPTG—(FIG. 2D) inducible promoters. LacO1 operator sites were inserted in various regions (O1, O2, O3) of the PcfxA promoter (see also FIGS. 7A-7B). Inducer concentrations were applied as follows: three-fold serial dilutions starting at 10 mM Rha (FIG. 2A); three-fold serial dilutions starting at 0.4% for ChS (FIG. 2B) and AG (FIG. 2C); and four-fold serial dilutions starting at 500 μM for IPTG (FIG. 2D). The leftmost data point in each plot represents the background luminescence in the absence of inducer. Response curves were fit to a Hill function (solid lines). (FIG. 2E) Orthogonality matrix of sugar-inducible genetic systems incubated with 10 mM rhamnose (Rha), 0.2% chondroitin sulfate (ChS), 0.2% arabinogalactan (AG), or 100 mM IPTG compared to no inducer. Error bars represent the standard deviation of three biological replicates made on different days.
FIGS. 7A-7B. Synthetic IPTG-inducible promoters. (FIG. 7A) Synthetic IPTG-inducible promoters were constructed by placing LacO1 operator sites (red) upstream of the −33 element (O1), between the −33 and −7 elements (O2) and/or directly downstream of the transcription start site (O3) of the strong PcfxA promoter. Predicted −33, −7 and +1 sites are shown in bold. These promoters are regulated by the E. coli LacIQ repressor expressed from PBT1311. FIG. 7A depicts SEQ ID NOs: 217 to 220 from top to bottom, respectively. (FIG. 7B) Response curves for the synthetic IPTG-inducible systems. Cells were incubated with no inducer or four-fold serial dilutions of IPTG starting at 500 μM. Data sets for PLacO13 and PLacO23 were fit to a Hill function (solid line). Error bars represent the standard deviation of three biological replicates made on three different days (n=3).
To create inducible systems for use in B. thetaiotaomicron, parts from a large repertoire of systems that govern carbohydrate utilization were used, which included cytoplasmic transcription factors, extracytoplasmic function sigma/anti-sigma pairs, and hybrid two-component systems (HTCS), among others (64). In B. thetaiotaomicron, rhamnose metabolism is mediated by the AraC/XylS-family transcriptional activator, RhaR, which activates transcription at the PBT3763 promoter (Patel E H, et al. Res. Microbiol. 159:678-84, 2008). To assay the functionality of PBT3763 as an inducible system, 250 bp of the promoter-RBS region was cloned upstream of the start codon of BT3763 into the pNBU2 expression vector to drive expression of NanoLuc.
Two-component systems are signal-transduction mechanisms widespread in bacteria for sensing external stimuli. […] Putative HTCSs, BT3334 and BT0267, were identified in transcriptomic studies to control expression of the chondroitin sulfate (ChS)-inducible PBT3324 promoter and arabinogalactan (AG)-inducible PBT0268 promoter, respectively (64, 83). The promoter regions upstream of the BT3324 and BT0268 genes were used as the basis for two polysaccharide sensors. Chondroitin sulfate induction of PBT3324 and arabinogalactan induction PBT0268 led to a 60-fold and 29-fold regulation of output gene expression, respectively (FIGS. 2B and 2C).
Next, an IPTG-inducible system was developed. Pairs of LacO1 operator sites were inserted in the strong PcfxA promoter in three locations: upstream of the −33 element (O1), between the −33 and −7 elements (O2) or just downstream of the transcription start site (O3) (FIGS. 7A-7B). The LacI^Q repressor was expressed from the strong BT1311 promoter to achieve tight control of NanoLuc expression. Compared to the unmodified PcfxA promoter, the addition of synthetic operator sites diminished the maximum expression of NanoLuc (FIGS. 7A-7B). […]

With “pNBU1: integration vector with IntN1 integrase, SEQ ID NO: 209”, the “host range and efficiency relative to the pNBU2 plasmid” value in the data set with Bacteroides spp was “greater host range and efficiency”.

B1: Int12: Serine integrase, SEQ ID NO: 167 (protein)
chain: MKVAIYTRVSSAEQANEGYSIHEQKKKLISYCEIHDWNEYKVFTDAGISGGSMKRPALQKLMKHLSSFDLVLVYKLDRLTRNVRDLLDMLEEFEQYNVSFKSATEVFDTTSAIGKLFITMVGAMAEWERETIRERSLFGSRAAVREGNYIREAPFCYDNIEGKLHPNEYAKVIDLIVSMFKKGISANEIARRLNSSKVHVPNKKSWNRNSLIRLMRSPVLRGHTKYGDMLIENTHEPVLSEHDYNAINNAISSKTHKSKVKHHAIFRGALVCPQCNRRLHLYAGTVKDRKGYKYDVRRYKCETCSKNKDVKNVSFNESEVENKFVNLLKSYELNKFHIRKVEPVKKIEYDIDKINKQKINYTRSWSLGYIEDDEYFELMEEINATKKMIEEQTTENKQSVSKEQIQSINNFILKGWEELTIKDKEELILSTVDKIEFNFIPKDKKHKTNTLDINNIHFKF
In the case of B1, in data set [1], the “recombination at the respective recognition sequence in the memory array” value is “catalyzed recombination”. Also, in the data set on B. thetaiotaomicron, the “impact on growth of B. thetaiotaomicron” value was “did not impact growth”.

B2: PBT0268: Arabinogalactan inducible promoter + RBS, SEQ ID NO: 146 (nucleic acid)
DNA: TAAAATACACAAGTACGCGTCTTAATGGAAGATGCGTACTTTTCCATATATCAATGATCTATCCCATTTGAATGATTCCTGAACTTATATTGAACGATTTTTAGACCTGTTATAGTTAATAGCGATTATGGTCCAATTTTGGAAGTTTTTGAATGATTAGAGAACTTCTTTCTACTGGATAACTCGCACTTTTGTGACGCATTTGATGCACAACTAATACTTATTTGGTCTAAATAACTTTATAAATCTAATAGT
Consider B2, for which, in the data set on NanoLuc [2] (fecal pellets), the “luciferase activity after removal of inducer from drinking water” value is recorded as “rapidly returned to baseline”. The “increase of luciferase activity in fecal pellets” value with NanoLuc [2] (within a day of arabinogalactan in drinking water) is reported as “approximately 75 fold”. Further, in the data set with NanoLuc [3], the “regulation of output gene expression” value was found to be 29 fold.
